Source: paper doi:10.1101/340778 (bioRxiv, 2018)

Target: J-base Binding Protein 1 (JBP1) (Leishmania tarentolae (assumed; species …, UniProt Q9U6M1)
Test: SPR

Chain of J-base Binding Protein 1 (JBP1) (Leishmania tarentolae (Q9U6M1 whole entry): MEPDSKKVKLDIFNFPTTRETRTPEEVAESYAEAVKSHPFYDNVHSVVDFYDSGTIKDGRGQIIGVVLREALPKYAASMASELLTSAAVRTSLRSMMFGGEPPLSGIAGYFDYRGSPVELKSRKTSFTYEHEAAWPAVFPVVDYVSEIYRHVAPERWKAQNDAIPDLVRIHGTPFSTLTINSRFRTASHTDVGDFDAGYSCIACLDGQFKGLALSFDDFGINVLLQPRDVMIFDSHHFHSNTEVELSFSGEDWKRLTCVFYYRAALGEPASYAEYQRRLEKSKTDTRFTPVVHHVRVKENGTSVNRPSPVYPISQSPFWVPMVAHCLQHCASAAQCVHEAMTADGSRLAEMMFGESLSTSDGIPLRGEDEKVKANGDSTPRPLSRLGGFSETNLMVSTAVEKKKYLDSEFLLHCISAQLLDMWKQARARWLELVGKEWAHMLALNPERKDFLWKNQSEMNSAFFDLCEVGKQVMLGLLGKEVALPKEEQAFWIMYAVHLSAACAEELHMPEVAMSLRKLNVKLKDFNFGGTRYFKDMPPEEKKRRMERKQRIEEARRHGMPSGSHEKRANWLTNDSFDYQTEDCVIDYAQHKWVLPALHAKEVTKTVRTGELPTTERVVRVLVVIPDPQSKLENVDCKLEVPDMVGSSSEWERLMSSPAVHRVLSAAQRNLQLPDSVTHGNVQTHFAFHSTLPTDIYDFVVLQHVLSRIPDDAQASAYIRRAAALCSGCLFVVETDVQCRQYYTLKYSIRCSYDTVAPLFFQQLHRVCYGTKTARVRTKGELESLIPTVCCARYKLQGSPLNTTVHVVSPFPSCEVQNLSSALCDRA

B1: nanobody-6 (Nb6) (VHH)
VHH: QVQLVESGGGLVQAGGSLRLSCAASGSFFSINDMGWYRQAPGKQRELVAVISSGGSTNYADSVEGRSTISSDNAKNTVYLQLSSLKPEDTAVYYCNANVRLREYRTTSYHYWGQGTQVTVSS
Kd: 30 nM
